Target: Polθ-helicase domain (human, UniProt O75417 1-894)
Test: EMSA

Polθ-helicase domain, sequence (O75417 1-894): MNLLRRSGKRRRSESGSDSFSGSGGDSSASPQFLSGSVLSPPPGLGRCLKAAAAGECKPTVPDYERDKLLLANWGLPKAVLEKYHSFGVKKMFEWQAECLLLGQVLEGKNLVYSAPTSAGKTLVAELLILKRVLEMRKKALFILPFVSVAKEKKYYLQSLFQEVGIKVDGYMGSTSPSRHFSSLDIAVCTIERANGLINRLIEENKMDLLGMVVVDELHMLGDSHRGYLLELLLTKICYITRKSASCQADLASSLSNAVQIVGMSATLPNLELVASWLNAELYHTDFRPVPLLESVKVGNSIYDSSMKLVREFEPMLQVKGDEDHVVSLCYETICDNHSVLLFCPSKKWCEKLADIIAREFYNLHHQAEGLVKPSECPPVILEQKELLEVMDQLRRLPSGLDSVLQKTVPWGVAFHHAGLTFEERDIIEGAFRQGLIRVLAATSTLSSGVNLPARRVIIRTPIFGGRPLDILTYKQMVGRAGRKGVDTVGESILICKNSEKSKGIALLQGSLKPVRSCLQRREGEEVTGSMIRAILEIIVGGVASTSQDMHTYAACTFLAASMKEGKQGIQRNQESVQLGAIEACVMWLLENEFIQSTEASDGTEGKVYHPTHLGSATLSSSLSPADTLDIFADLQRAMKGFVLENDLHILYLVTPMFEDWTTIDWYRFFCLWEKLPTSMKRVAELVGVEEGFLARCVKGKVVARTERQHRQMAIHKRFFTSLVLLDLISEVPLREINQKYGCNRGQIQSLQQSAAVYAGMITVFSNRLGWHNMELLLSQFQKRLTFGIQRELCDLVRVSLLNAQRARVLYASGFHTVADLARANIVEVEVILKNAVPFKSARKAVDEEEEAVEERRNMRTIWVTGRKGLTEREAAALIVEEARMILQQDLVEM

B1: SM76 (ssDNA)
DNA: TTTTATATTTTGTTTTGTGTTATTTTTTTCTTTAACAT
- binding result: binds
